Data: article PMC3784511

Molecular target: T1, NF-kB p50 homodimer (UniProt P19838)
T1 sequence: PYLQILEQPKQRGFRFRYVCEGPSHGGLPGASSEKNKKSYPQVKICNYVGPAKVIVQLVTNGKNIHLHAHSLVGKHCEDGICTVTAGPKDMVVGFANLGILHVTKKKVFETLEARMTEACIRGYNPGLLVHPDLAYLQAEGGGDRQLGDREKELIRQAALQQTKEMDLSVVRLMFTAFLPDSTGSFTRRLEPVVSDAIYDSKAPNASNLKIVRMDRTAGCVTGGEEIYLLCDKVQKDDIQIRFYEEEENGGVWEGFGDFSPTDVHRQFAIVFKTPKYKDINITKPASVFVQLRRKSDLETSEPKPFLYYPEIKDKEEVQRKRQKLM
Test: UV laser footprinting
Conditions: 10 mM Tris pH 7.4, 75 mM NaCl, 1 mM EDTA, 1 mM DTT, 100 ug/ml BSA, 0.01% NP40 (omitted in dilution experiments), 5% glycerol, 37 C; naked DNA supplemented with …

With “GCTCGGAATTCTATCCGACTGGCACCGGCAAGGTCGCTGTTCAATACATGCACAGGATGTATATATCTGACACGTGCCTGGAGACTAGGTAGTAATTCTCTTGGCGGTTAAAACGCGGTGTACAGCGCGTACGTGCGTTTAAGCGGTGCTAGAGCTTGCTACGACCAATTGAGCGGCCTCGGCACGGGGATTCCCCAGGTCGGCCGCGTATAGTGTCCATCACATAAGTGATGAACTCGGTCTTAAGAATCATGC (double strand) [601_D7 DNA (255 bp)]” the Kd was 14 nM.
